Seven variants from article PMC8571082 (2021) can be followed below.

To fix the notation:
B1: Mint3NT, N-terminal fragment (1–214) of Mint3 [human] / factor inhibiting HIF-1 (FIH-1), full-length [human] (parent complex)
chain 1: MDFPTISRSPSGPPAMDLEGPRDILVPSEDLTPDSQWDPMPGGPGSLSRMELDESSLQELVQQFEALPGDLVGPSPGGAPCPLHIATGHGLASQEIADAHGLLSAEAGRDDLLGLLHCEECPPSQTGPEEPLEPAPRLLQPPEDPDEDSDSPEWVEGASAEQEGSRSSSSSPEPWLETVPLVTPEEPPAGAQSPETLASYPAPQEVPGPCDHED
chain 2: MAATAAEAVASGSGEPREEAGALGPAWDESQLRSYSFPTRPIPRLSQSDPRAEELIENEEPVVLTDTNLVYPALKWDLEYLQENIGNGDFSVYSASTHKFLYYDEKKMANFQNFKPRSNREEMKFHEFVEKLQDIQQRGGEERLYLQQTLNDTVGRKIVMDFLGFNWNWINKQQGKRGWGQLTSNLLLIGMEGNVTPAHYDEQQNFFAQIKGYKRCILFPPDQFECLYPYPVHHPCDRQSQVDFDNPDYERFPNFQNVVGYETVVGPGDVLYIPMYWWHHIESLLNGGITITVNFWYKGAPTPKRIEYPLKAHQKVAIMRNIEKMLGEALGNPQEVGPLLNTMIKGRYN

This assay covers variants of B1. In words: ITC; measured three times for each FIH-1 mutant.
Turning to chain 2 E250A, the dG was -9 kcal/mol. The figure for chain 2 Y71A is -8.6 kcal/mol; for chain 2 N171A it is -8.7 kcal/mol. The figure for chain 2 E29A is -9.1 kcal/mol; for chain 2 E79A it is -8.7 kcal/mol; for chain 2 D248A it is -9.3 kcal/mol.

Consider chain 2 K75A, for which the dG is -8.8 kcal/mol.
